Results reported in the supplement of paper PMC12855868.

B1: library; numbered along this chain (parent)
chain: MAAAGGARLLRAASAVLGGPAGRWLHHAGSRAGSSGLLRNRGPGGSAEASRSLSVSARARSSSEDKITVHFINRDGETLTTKGKVGDSLLDVVVENNLDIDGFGACEGTLACSTCHLIFEDHIYEKLDAITDEENDMLDLAYGLTDRSRLGCQICLTKSMDNMTVRVPETVADARQSIDVGKTS

Variants of: B1
Test: scaled log2 fold change in cell abundance, elesclomol vs control (0 = silent mean, 1 = nonsense mean) (scaled log2 ratio); higher = higher viability under elesclomol (loss of FDX1 cuproptosis function)
Settings: glucose 10 mM
[1] = with ABC1 FDX1 KO, elesclomol 5 nM, 14 days
[2] = with HEK293T FDX1 KO, elesclomol 40 nM, 11 days
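Also: variant abundance is its share of total variant reads in each endpoint sample, from next-generation sequencing of the integrated ORF PCR-amplified out of genomic DNA.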

Row | Variant | scaled log2 fold change [1] | scaled log2 fold change [2]
1 | A105H | -1.17 | -0.265
2 | A105L | -0.395 | 0.791
3 | A105D | 0.0439 | 0.0751
4 | A105V | -0.318 | –
5 | A105F | 0.0682 | 0.146
6 | A105M | -0.336 | 0.677
7 | A105R | 0.523 | -0.155
8 | A105T | -1.22 | –
9 | A105S | -0.302 | 0.253
10 | A105E | 0.163 | -0.502
11 | A105I | -0.149 | -0.181
12 | A105W | -0.156 | 0.135
13 | A105P | 0.895 | 0.503
14 | A105Y | -0.576 | 0.955
15 | A105C | 0.134 | -0.333
16 | A105G | -0.0984 | -0.152
17 | A105Q | -0.126 | 0.295
18 | A105N | -0.246 | 0.204
19 | A105K | 0.238 | 0.106
20 | G108D | 0.898 | 0.446
21 | G108H | 0.742 | 0.224
22 | G108T | 1.01 | 0.358
23 | G108Y | 1 | 1.1
24 | G108V | 1.07 | 1.34

Row | Variant | scaled log2 fold change [1] | scaled log2 fold change [2]
25 | G108R | 0.794 | -0.104
26 | G108P | 1.09 | 1.24
27 | G108S | 0.376 | 0.952
28 | G108K | 0.467 | 0.101
29 | G108Q | 0.767 | 0.807
30 | G108E | 1.01 | 0.92
31 | G108N | 0.805 | 0.721
32 | G108A | 0.21 | 1.08
33 | G108I | 1.05 | 1.37
34 | G108L | 1.02 | 1.11
35 | G108W | 0.949 | 0.989
36 | G108F | 1.12 | 0.938
37 | G108M | 0.834 | 0.77
38 | G108C | 1.05 | 0.472
39 | T109A | -0.1 | 0.103
40 | T109D | -0.669 | 0.407
41 | T109I | -0.689 | -0.157
42 | T109G | 0.318 | 0.43
43 | T109V | -0.651 | –
44 | T109F | -0.985 | -0.223
45 | T109E | -0.14 | –
46 | T109Y | -0.087 | –
47 | T109R | -0.153 | 1.07
48 | T109M | -0.267 | 1.01

Row | Variant | scaled log2 fold change [1] | scaled log2 fold change [2]
49 | T109K | -0.296 | -0.481
50 | T109P | 0.947 | 0.81
51 | T109Q | -0.041 | –
52 | T109W | -0.657 | 0.253
53 | T109H | -0.34 | -0.84
54 | T109C | -0.244 | -0.121
55 | T109S | -1.08 | -0.288
56 | T109L | -0.315 | 0.377
57 | T109N | -0.076 | 0.456
58 | I100T | 0.138 | -0.631
59 | I100V | -0.852 | 0.0203
60 | I100Y | 0.0992 | -0.139
61 | I100S | 0.183 | 1.01
62 | I100W | 0.297 | -0.693
63 | E107Y | 0.333 | -0.16
64 | E107F | -0.754 | -1.14
65 | E107V | 0.145 | 0.849
66 | E107Q | -0.324 | -0.527
67 | E107A | 0.00703 | -0.202
68 | E107W | 0.121 | -0.686
69 | E107K | -0.532 | 0.255
70 | E107P | 0.92 | 0.951
71 | E107H | -0.0248 | 0.933
72 | E107N | 0.0244 | -0.796

Row | Variant | scaled log2 fold change [1] | scaled log2 fold change [2]
73 | E107C | 0.0589 | 0.444
74 | E107T | -0.333 | 0.112
75 | E107D | -0.195 | 0.683
76 | E107R | -1.12 | 1.26
77 | E107I | 0.227 | 0.0716
78 | E107G | -0.152 | 0.114
79 | E107L | -0.267 | -0.452
80 | E107M | -0.428 | -0.835
81 | G104E | 1.19 | 0.941
82 | G104L | 1.03 | 0.779
83 | G104R | 0.848 | 0.682
84 | G104T | 0.997 | 1.59
85 | G104Y | 0.933 | 1.09
86 | G104F | 0.647 | 0.268
87 | G104W | 0.96 | 0.69
88 | G104K | 0.879 | 0.468
89 | G104A | 0.243 | -1.55
90 | G104D | 1.12 | 0.43
91 | G104V | 0.949 | 1.02
92 | G104N | 0.899 | 1.47
93 | G104C | 0.959 | 1.19
94 | G104S | 0.931 | 0.363
95 | G104Q | 1.05 | 0.891
96 | G104I | 0.933 | 1.53

Row | Variant | scaled log2 fold change [1] | scaled log2 fold change [2]
97 | G104P | 1.02 | 0.598
98 | G104M | 0.794 | 0.449
99 | G104H | 0.989 | 0.725
100 | D101N | -0.201 | -0.0138
101 | D101H | -0.018 | -0.455
102 | D101F | -0.332 | 0.0209
103 | D101V | 0.24 | -0.613
104 | D101E | 0.0987 | -0.481
105 | D101C | -0.242 | 0.242
106 | D101K | 0.0609 | 0.803
107 | D101A | -0.221 | -0.578
108 | D101P | -0.357 | -0.96
109 | D101Q | 0.0405 | -0.42
110 | D101L | -0.471 | -0.161
111 | D101I | -0.248 | -0.191
112 | D101Y | 0.239 | 1.05
113 | D101G | 0.085 | -0.787
114 | D101S | -0.19 | -0.82
115 | D101M | 0.241 | 0.684
116 | D101T | -0.218 | -0.744
117 | D101R | 0.0225 | -0.328
118 | D101W | 0.326 | -0.257
